Measured values reported in patent CN113637078A (WEST CHINA HOSPITAL SICHUAN UNIV, dated 2021).

What was measured:
p38β = p38β (UniProt Q15759 1-364, limits assumed); test: ELISA, antigen coated on plate, periplasmic extract of the nanobody, anti-FLAG detection, OD450
[1] = molecular target: T1, p38γ with 2×Strep tag (pET28a-p38γ-2×Strep) (Homo sapiens (Human), UniProt P53778 1-367); test: as above
T1 construct: Recombinant, from E. coli BL21(DE3); The tag is placed at the C-terminus only on the strength of the vector name; not shown: 2×Strep tag
T1 sequence: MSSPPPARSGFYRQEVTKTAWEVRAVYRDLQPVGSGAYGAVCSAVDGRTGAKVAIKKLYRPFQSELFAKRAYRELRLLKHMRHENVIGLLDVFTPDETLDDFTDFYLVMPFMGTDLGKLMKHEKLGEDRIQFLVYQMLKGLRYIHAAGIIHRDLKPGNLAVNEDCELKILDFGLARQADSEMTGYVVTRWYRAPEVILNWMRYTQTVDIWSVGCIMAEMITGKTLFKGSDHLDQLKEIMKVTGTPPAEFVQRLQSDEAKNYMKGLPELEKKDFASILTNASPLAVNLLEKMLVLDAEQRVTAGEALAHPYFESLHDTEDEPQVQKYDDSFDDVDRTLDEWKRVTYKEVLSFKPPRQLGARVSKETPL

p38α = p38α (UniProt Q16539 1-360, limits assumed); test: as above
Chain of p38α (Q16539 whole entry): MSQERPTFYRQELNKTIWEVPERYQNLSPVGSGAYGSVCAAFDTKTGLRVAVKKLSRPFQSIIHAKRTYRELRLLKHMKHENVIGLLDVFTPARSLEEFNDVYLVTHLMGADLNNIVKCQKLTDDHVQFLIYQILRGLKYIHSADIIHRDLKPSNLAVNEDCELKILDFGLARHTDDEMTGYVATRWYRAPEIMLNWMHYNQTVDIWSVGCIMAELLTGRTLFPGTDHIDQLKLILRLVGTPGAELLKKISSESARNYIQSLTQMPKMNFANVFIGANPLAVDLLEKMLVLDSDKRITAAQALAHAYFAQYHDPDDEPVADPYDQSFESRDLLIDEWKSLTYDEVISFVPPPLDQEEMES

[2] = molecular target: T2, 蛋白激酶p38δ with 2×Strep tag (pET28a-p38δ-2×Strep) (Homo sapiens (Human), UniProt O15264 1-365); test: indirect ELISA, p38δ coated, nanobody at 0-6.4 μM, anti-FLAG detection, 4-parameter fit
T2 construct: Recombinant, from E. coli BL21(DE3); The tag is placed at the C-terminus only on the strength of the vector name pET28a-p38γ/p38δ-2×Strep; Linkers and other vector residues are not described; not shown: 2×Strep tag
T2 sequence: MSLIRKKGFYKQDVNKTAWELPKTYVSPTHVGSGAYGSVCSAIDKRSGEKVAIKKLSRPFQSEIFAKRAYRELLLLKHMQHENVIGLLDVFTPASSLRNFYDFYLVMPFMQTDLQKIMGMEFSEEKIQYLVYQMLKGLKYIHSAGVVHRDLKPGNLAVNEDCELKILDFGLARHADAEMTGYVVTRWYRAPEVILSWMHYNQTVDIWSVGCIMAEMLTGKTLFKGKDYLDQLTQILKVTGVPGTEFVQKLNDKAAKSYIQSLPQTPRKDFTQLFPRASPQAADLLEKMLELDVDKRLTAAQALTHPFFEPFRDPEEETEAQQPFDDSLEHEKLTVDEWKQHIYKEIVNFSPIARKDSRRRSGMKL

Chain of p38β (Q15759 whole entry): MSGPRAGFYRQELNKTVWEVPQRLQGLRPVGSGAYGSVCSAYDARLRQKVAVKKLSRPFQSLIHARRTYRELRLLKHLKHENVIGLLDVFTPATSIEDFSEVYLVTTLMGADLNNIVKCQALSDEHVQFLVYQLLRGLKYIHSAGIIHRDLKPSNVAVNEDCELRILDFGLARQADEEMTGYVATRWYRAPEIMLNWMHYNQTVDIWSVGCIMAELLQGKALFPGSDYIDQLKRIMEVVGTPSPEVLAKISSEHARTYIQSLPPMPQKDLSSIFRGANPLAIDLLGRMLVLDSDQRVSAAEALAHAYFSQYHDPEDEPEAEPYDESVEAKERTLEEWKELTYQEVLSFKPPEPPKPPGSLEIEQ

- binding result (p38β): no binding
- binding result [1]: no binding
- binding result (p38α): no binding
- Kd [2]: 499 nM
B1: 纳米抗体Nb13-6 (nanobody against protein kinase p38δ), C-terminal FLAG tag (VHH)
VHH: QVQLVESGGALVQPGGSLRLSCAASGLEPSMFSLRWYRQAPGKEREWVCGISKWFDDMSYEDSVKGRFTCSRDDARNTVYLQLNSLKPEDTAVYYCASLRPTFLPGLMRTRYWGQGTQVTVSS
notes: Expressed from pET22b in E. coli BL21(DE3); Used mostly as periplasmic extract; Other vector-derived residues are not described; also called 针对蛋白激酶p38δ的纳米抗体; not shown: FLAG tag fused at the C-terminus
